In the supplement of paper PMC12636428:

Tested on: Saccharomyces cerevisiae
Test: transcriptional activation domain activity (GFP:mCherry ratio, weighted mean of sorted bins, harmonized to initial dataset scale) (arbitrary fluorescence ratio units); higher = stronger transcriptional activation
Conditions: beta-estradiol 1 µM; induction time 4 h
Outline: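 Barcoded tiles were sequenced after cells were sorted into 8 bins by GFP:mCherry ratio. Before sorting, cultures had been diluted 1:5 into SC with 1 uM beta-estradiol and held for 4 hours at 30 °C. The tiles were fused to an estradiol-inducible synthetic transcription factor and integrated at URA3 in yeast diploids carrying a GFP reporter. Activation activity is the read-weighted mean of bin median fluorescence, averaged over barcodes and linearly mapped onto the initial dataset scale, and tiles under 50 reads were left out.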

Row | Sequence | transcriptional activation domain activity
1 | MYDACLCGRLGFFYLLLVFFLSSVFHSHLFFLPFFGLFYLLRYFFFNFSTFVA | 52700
2 | APFFLPPFHFFFPFFPFPFFLGSFPFLFSFPFPFSFPFFLFHFPSFFPFLPSF | 65400
3 | ISCAVSACIVCVINCAVTVWASVNNKANKGVLFEGDCEKVRQMNTGLHLLINL | 66400
4 | WKPDIYTCVMRMLLDRLHSALGSLHARSIIRKIRILVALAGNVAYRGYPLQMT | 48900
5 | MLCADLFFRFVLVKILVFILYDYGRGECDIVIMLVFFFFFPPPPPFFSFFFLF | 65300
6 | FQTFYSNFKRKVLVWSLRFTNLTYNQPLVWHATFVYILALLSMPWFKAKFIPS | 43800
7 | LLVFICAAPYAAYREGNNLIVSSYFCSSFLVFNFYMRLDCGLSWMKHTLLFIV | 44700
8 | DETAPATEEASKEGEAAEEAAPAAEAEETKTEEAPNKEEGTKRRSASRKRVSI | 37200
9 | MIQTPLFYYLFYILFYFIFIFIYSLLGFFLIFYLFVLFSFHFCFPPPPPFSFF | 46900
10 | GLMGALGFRMLFGVPCLPFFALHWFLWLVNDYILYCVLVQTNRISSIHFLRAW | 41200
11 | LNRAARRSTPASRTRREGAIGARVRRRERESERARARTKMGRRSCLRVSAAAT | 61600
12 | CFKLSLVALWPFGKSIDWNLRSAGCLSTVFNVIWLVLLGWHLCLIHLGLMLLF | 43600
13 | MVVIWGLDLKEMQWWKFKGSYMFNQTYHLRRTKMIVYQIAMIFMVCSESVGTA | 31600
14 | MMKVVGFLYQIYLIIYCVGWWFLLLVLFVFSFSFFFFLFFFFLFFSSTFYSLS | 43100
15 | VGGEANGEVVKRKSKKKGGKEETDTEVVDGEDQSSRKVATRKLSRGKAEKKAK | 48900
16 | GKVFILLRIWFFRQRSLSLYRTLLSSYLVERSPLFTSTMGVFGLDRKLLVKTA | 62500
17 | FGVKKVHHEIRSHVRLYYQSIGTSLLKGYERMDMVDIFKALRQCFLAIVLLFR | 53600
18 | TRGAPPAPPPPPPPPARPSESGAPPPPPPPPARGAPPPPPPPPPPAGGAPPPP | 36500
19 | VDAKFVIVANYGTACVVMGFLAVAMYCLLITVGDDIYFVGMLFSFTIIGTLMI | 29300
20 | LHQFDHFGYQQVFSVRWMKKHLHDVSGGVMLHVIKYMANILSSLLAPMGYFEM | 29600
21 | RHYCYIIVLKSLMYESPRIIGFAWKPEEGHFFNKVMYRTFVGLLMLLQVLLVG | 55900

Row | Sequence | transcriptional activation domain activity
22 | VLGAAKCIPFLRWPTLHLSILLSWWDADTLVRLLKALAELHLRSITITLKIGI | 55700
23 | IELRARVFNYSNMHALKRCTFRLNRFETAFNFKLLWLFFVYYTRGIEVNRRNL | 58600
24 | SKSESTHSSAKKADSGKRSGRSKPATSDGGPKGFDSKPSGEKSKKESSRSTKE | 36600
25 | FFDDIPDTLESIRKHIDLFGNDFYLAHIYRTLRWWTKPTHVAVLGDLLGSQWI | 70300
26 | MSDDSGASPTQRSVRKPHRKSRNGCLDCRRRRVKCGEEHPSCRVCVRRNVRCE | 49800
27 | MLSLIWCFKAWLLTIISLPSYIILRTPLPFLFSSSPLFRSSPFHFFFTSLSTH | 48100
28 | SRVVYRDGRRHHYCVTSFDVLSSGILYIICGALDNIWLVTIERVVLSIMACRV | 81500
29 | KRCFSLFFFFFFSFLPFLFLFLSPYCLLNTFVPFSFSFLIYLILLLKFNLSAE | 48900
30 | LNYRKDIDAWHKSLMGTLARGPTLWTFWILSCLDKECFWNWQCYLGYMWPGLF | 72100
31 | PTTSFFFWYRLYCSVLLSIGILISIPTLWILPSCFLPNHWKALWVVVLSFLGW | 52400
32 | SSTWFEPLENIISSASSSSIGSPIEDQFISSNNEESALFPTDQFFSNPSSYSH | 84600
33 | VWEAVTTGFDGGFVPRTRDADAGTRRTGGSVRAEERKEKLRAWRVSRCWAVLA | 56500
34 | RNLMVIVLVVGNLRLMIENLQKYGVLICLHCHDFRRSDILLGLGLYFLIPCHL | 64000
35 | YTRCEVIYLKRSLPSYFGPSMLQFTILFILIVTNSIVLLGLFLLLCRTLWGLA | 19500
36 | MTEQAPTIRTAEKDTEGPAKRRRRPALSCVECRSRKVRCDRGKPCRACTRVRS | 26200
37 | LQCLLLSVLSPIGLVLLYSHLIGTDLIVIVSQLMFDYQVVQSWFIIFVCLVYW | 57400
38 | MFFFLSAFLLPFLFFLVGHSAPSFLYLVFLSFLFYYLLHFYFFLFFTYFCGSC | 59300
39 | MLLIWLYALKTGFVLSAVVSFGFWYSISLFFMYFIGKPLFHDSFFLFFSSFFL | 57200
40 | GAEYICQYKGGLIGKHFKSFAQIMPYLIYDLVPPSVLDAWTTIGSPVVLLWHT | 46000
41 | ASTKGRADVRGRSGKAAPQKGRGKARVGSKRAPHFRGGGIAFGPRPRDFSTEL | 28300
42 | RSKHWEMLSVLHAGMVLLTAWFFFHCIDLIIHLERARVAYGYIVVPALFDILR | 46500

Row | Sequence | transcriptional activation domain activity
43 | KEGMGWVDVLFSVCTSIILVQLVFVLGWWLLFLFLSMYHMLTFCIIIFILYKY | 53300
44 | RYWTFMTFLSIFLSIFACFLWIAVYSLFPTFFFDWELIILYSTMNFWATVVVV | 51700
45 | DMLISFGLDHPSNREDDLDKLCNMTRDVQAIFSQYLKGEESKRSLEDFLSTSN | 67500
46 | GEEVSAPLPKPKGKGGRPRKHPRPEPVASEYEVDGEPTPKRARRAIKSKRGRR | 23500
47 | HMLLRQFLILNLFNLIYLHLFLLLWLLLQQLLYLMILFKFPIPYLLALSYRLS | 55300
48 | IQAEGLYDCRYSSYGIELLRYAFYFGMFLFLLRSGWYITSSVFLGTLWHQLSF | 21100
49 | FLGTAMYFLYGESVIYYFKHILLVDRILLPLATHHRFISFMLYIIGFVFFVFS | 51000
50 | GQPTDASDGNATEGEVPEKPKKAKRKRVKKDAGEISDGGQPKSKPKKKRKPAK | 36100
51 | MADQPQGRKPNNRRPRHRGRGGGAGGGGNGGGNGGGEDGGNEGGRGGRRGGRG | 33900
52 | MFWLSVSCYTYKIIRFYYADCGLVGVLKDQVQQCWIHLSYDLVYQYLPNLLNW | 69400
53 | YVVLEVGLNVQLDRMAQSDARMVVHALSGGPFIDVVRWVPLRMSSGAFQIGLR | 68300
54 | MVFSLASLSLLCLCLISFFFYLFFFFFFYQIPSPCFALWLANFYLSCRAWLDK | 46600
55 | VWVKTPWNLYALLLATLSHSLMIDPLLGVLLYYSSITWDPLYRILIFCIFAFW | 45400
56 | HEDQKLREDQEARLRAVEEFEAVQMGLSVKTGASARVIGRQGGRIVAEEEQHV | 26100
57 | TTWLAHSKKKNCDVCKHPYSFTKVYATDMPTRLPPVLLLRRIAQQSFFAMVFA | 44800
58 | PINAAISNLMLGMLLFCGSLYTLVTFLPIFHSNCPYYTPLSSPWWRILRALGV | 46000
59 | PAPAAAAASSSTATEKASGEQQPRESKRNPRHRNKRGRDNKDKDGKEGAGGKS | 28100
60 | VDRFKEFSHFLRRNENRTPSMIVLRRLCLDVSFLLCVVGFVRILWKRSGMRRR | 62400
61 | CKSFITVLMDLPHFTTSCVWVFFFSSFCFLWENASLLYRRLILSFFSFSFLFP | 66000
62 | RSSRSKRRSRSPHDSSHKRRSRKEGRRPPSRERDEEDGEKRRHRSSRSHRRRR | 11400
63 | GELQFCYITGMVLGNLACMEQWGNIVRVIFRAFRLALDSPVFFRKVIQAIHTQ | 80700

Row | Sequence | transcriptional activation domain activity
64 | VAALLATSLCMIYPLWSIFSIVQVIYMFANICLLVWVIPKGLHFACYYLLGVS | 37400
65 | GDAEPSSKGGEDSSGGEGSADEEKPKAKPAKAKSKSSSSKEPVKKKAKKEKKD | 21400
66 | MGCVRHEKVIDITLKLFYKKTGGRYLKSEYNLFAVLVYLCLYRLPTDLPFATL | 53200
67 | ILFMLFYYLSIYFIGTLGGIWLATYIMSFRENLVIQLVIARVCFIVALGVVMA | 35400
68 | TNLYDHAVTPEILLEQLAYVDNFIPSLDNEFSNVDWNVNTTHNNANNNGADTF | 47300
69 | RKVGFILYVIMHMRINIVFAAFRLAKFNINPNSVYIKIINCVIKYLLKTMDYF | 44700
70 | ASGAAAPSGTPSLFGAKPAGTTAAPATSTPAGGLFGAASSAAPAASATTPTTG | 47400
71 | LALCQLKFWAIFSSIKHVNGLLKHSYPFDRSNFNVLVKSLIRGMFYKFQERQD | 40100
72 | CIGAMVLIVLWAGGVCILVLVMCIPLEGVWDRRVNAKCIPHMTVMWYFNGVFN | 62900
73 | SEPELYVPQFKLDPVNGFWFPHFVKYIILILMLGLYVLIIFWTFMICKVVYRL | 33300
74 | ALTLVDPQGVLKCRIVLFCVIRGSVMVLGWWNYKLMHRWLLPGIIQCLSNIPV | 64500
75 | NDTKKNMSTSNLFPFSFSNTDLTALFTHPEGPNCTNTNNGNVDVCNRASTDAT | 51400
76 | EGGEGGDGAGGDGAAAGGKDGEGGKGGGKEEKGGKAGKDAKGGAKKPGSGKKG | 16500
77 | RVHPTCLKEFGTADFICGQCNSIYRSGRFLRIARCICLMCHLLSLASTVGLIF | 57300
78 | SVVLGVLHMSLSICTQVPNFIHFGRPSSIITEFLPQILFLHCLFGYLVFMIIY | 79100
79 | MDCLLNPVVPCLVCFLPFVCKIAVSLHLPLWSICCVCVSIRIALVCTLIAFII | 50400
80 | AAAKAKDNIKEEDEADELAPVKKTAKKRGPKAQDVDGEGAPKKKPRGRPAKKA | 17000
81 | MGLWARFFCFVIVCFQITFLYCLLSFSPSFLDLQKIQPLFFTFFFFLLLSLFP | 43200
82 | GFVVQQLQKLFLTCIALKLVQRVNSLNKLFKTAVGSLPVILSLLGLWIILFLF | 47200
83 | HHTLPYRFRLDGHAAYLGLFIHFLSVLVVVYIFRLEVCVRYRPGWMRCQCWWR | 81600
